{"source": "paper PMC8521305", "target": "glycophorin A (GlyA) TMH", "assay": "SEC", "data": [{"substance": "glycophorin A (GlyA) TMH (domain or fragment)", "values": [{"measurement": "stoichiometry N (helices per nanodisc)", "result": 2}]}]}
